{"source": "patent US20230080534A1", "about": "(SHANGHAI BIOTROY BIOTECHNIQUE, published 2023)", "binders": {"B1": {"name": "H88-67 (antibody, V domains shown)", "VH": "QVQLLESGGGVVQPGRSLRLSCAASGFTFSSYAMHWVRQAPGKGLEWVAVISYDGSNKYYADSVKGRFTISRDNSKNTLYLQMNSLRAEDTAVYYCARMDGSGSPDYWGQGTLVTVSS", "VL": "not shown", "notes": "Fully human full-length antibody built from a phage Fab"}, "B2": {"name": "67-6-67-6 (antibody, V domains shown)", "VH": "QVQLLESGGGVVQPGRSLRLSCAASGFTFSSYAMHWVRQASGKGLEWVAVISYDGSNKYYADSVKGRFTISRDNSKNTLYLQMNSLRAEDTAVYYCARMDGHGSPDYWGQGTLVTVSS", "VL": "not shown"}, "B3": {"name": "SEMG2-P3 fused with GFP (other)", "chain": "KAHKISYPSSRTEERQLHHGEKSVQKDVSKGSISIQTEEKIHGKSQNQVTIHSQDQEHGHKENKISYQSSSTEERHLNCGEKGIQKGVSKGSISIQTEEQIHGKSQNQVRIPSQAQ", "notes": "not shown: GFP fusion partner"}, "B4": {"name": "SEMG2-P4 fused with GFP (other)", "chain": "EYGHKENKISYQSSSTEERRLNSGEKDVQKGVSKGSISIQTEEKIHGKSQNQVTIPSQDQEHGHKENKMSYQSSSTEERRLNYGGKSTQKDVSQSSIS", "notes": "not shown: GFP fusion partner"}, "B5": {"name": "96-10V-10 (antibody, V domains shown)", "VH": "QVQLLESGGGLVQPGGSLRLSCSASGFTFSSYAMHWVRQAPGKGLEYVSAISSNGGSTYYADSVKGRFTISRDNSKNTLYLQMSSLRAEDTAVYYCVIEGGSTGSTVSGAFDIWGQGTMVTVSS", "VL": "DIQMIQSPPSVSASVGDTVTIACRANQGIDSWLAWYQQKPGRAPKLLIYSASRLQSGVPSRFSGGGSGTDFALTISNLQPEDFATYYCQQALSLPITFGQGTRLEIK"}, "B6": {"name": "H88-96 (antibody, V domains shown)", "VH": "QVQLLESGGGLVQPGGSLRLSCSASGFTFSSYAMHWVRQAPGKGLEYVSAISSNGGSTYYADSVKGRFTISRDNSKNTLYLQMSSLRAEDTAVYYCVIEGGSTTGTTSGAFDIWGQGTMVTVSS", "VL": "DIQMIQSPPSVSASVGDTVTIACRANQGIDSWLAWYQQKPGRAPKLLIYSASRLQSGVPSRFSGGGSGTDFALTISNLQPEDFATYYCQQALSLPITFGQGTRLEIK", "notes": "as for B1"}, "B7": {"name": "MM05V4V2 (antibody, V domains shown)", "VH": "QVQLVQSGAEVKKPGASVKVSCKASGYTFTSYWMNWVRQAPGQGLEWVGMIDPSDSETHYAQKFQGRVTITADKSTSTVYMELSSLRSEDTAVYYCARYLGGKEGSFDYWGQGTLVTVSS", "VL": "not shown", "notes": "humanized MM05 antibody, one member of the group m49"}, "B8": {"name": "MM05V4V1 (antibody, V domains shown)", "VH": "QVQLVQSGAEVKKPGASVKVSCKASGYTFTSYWMNWVRQAPGQGLEWVGMIDPSDSETHYAQKFQGRVTITADKSTSTVYMELSSLRSEDTAVYYCARYLGGKEGSFDYWGQGTLVTVSS", "VL": "not shown", "notes": "as for B7"}, "B9": {"name": "MM05V3V2 (antibody, V domains shown)", "VH": "QVQLVQSGAEVKKPGASVKVSCKASGYTFTSYWMNWVRQAPGQGLEWVGMIDPSDSETHYAQKFQGRVTITVDKSTSTVYMELSSLRSEDTAVYYCARYLGGKEGSFDYWGQGTLVTVSS", "VL": "not shown", "notes": "as for B7"}, "B10": {"name": "SEMG2-P1 fused with GFP (other)", "chain": "GSFSIQHTYHVDINDHDWTRKSQQYDLNALHKATKSKQHLGGSQQLLNYKQEGRDHDKSKGHFHMIVIHHKGGQAHHGT", "notes": "not shown: GFP fusion partner"}, "B11": {"name": "SEMG2-P2 fused with GFP (other)", "chain": "QNPSQDQGNSPSGKGLSSQCSNTEKRLWVHGLSKEQASASGAQKGRTQGGSQSSYVLQTEELVVNKQQRETKNSHQNKGHYQNVVDVREEHSSKLQTSLHPAHQDRLQHGPKDIFTTQDELLVYNKNQHQTKNLSQDQEHGR", "notes": "not shown: GFP fusion partner"}}, "key": {"[1]": {"biological_target": "T1, human SEMG2 full-length protein (human, UniProt Q02383 24-582, limits assumed)", "T1 construct": "also called SEMG2 protein; semenogelin 2", "T1 sequence": "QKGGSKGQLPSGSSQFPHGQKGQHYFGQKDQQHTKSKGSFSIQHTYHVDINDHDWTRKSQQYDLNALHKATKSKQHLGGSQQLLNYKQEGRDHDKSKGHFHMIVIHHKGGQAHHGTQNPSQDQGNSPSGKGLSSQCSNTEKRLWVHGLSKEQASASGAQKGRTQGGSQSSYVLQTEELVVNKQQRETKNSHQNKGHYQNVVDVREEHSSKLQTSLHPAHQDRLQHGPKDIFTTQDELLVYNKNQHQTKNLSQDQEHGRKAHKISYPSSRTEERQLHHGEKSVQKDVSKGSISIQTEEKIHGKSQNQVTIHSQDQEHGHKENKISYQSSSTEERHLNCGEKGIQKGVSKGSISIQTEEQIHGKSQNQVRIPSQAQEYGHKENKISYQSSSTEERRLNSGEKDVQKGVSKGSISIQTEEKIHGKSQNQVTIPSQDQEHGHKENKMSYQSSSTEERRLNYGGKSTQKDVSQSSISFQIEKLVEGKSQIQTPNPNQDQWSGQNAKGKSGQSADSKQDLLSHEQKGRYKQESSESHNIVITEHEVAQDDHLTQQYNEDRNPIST", "assay": "biolayer interferometry (ForteBio Blitz or Gator)", "description": "The equilibrium dissociation constant (KD) of the antibody of the present invention binding to human SEMG2 was determined by biolayer interferometry (ForteBio Bltz or Gator instrument). […] 100 μl of SD buffer, antibody and SEMG2 were added to a 96-well black polystyrene half area microplate, respectively. Select the sensor location based on the sample location layout. KD values were analyzed using molecular interaction analysis software. In the experiments of the assays, the affinity constants of murine monoclonal antibodies and human antibodies H88-67, H88-93 and H88-96 are shown in Table 8, and the affinity and dissociation curves of SEMG2 and corresponding proteins are shown in FIG. 25."}, "[2]": {"biological_target": "T1, human SEMG2 full-length protein", "assay": "ELISA on SEMG2; the EC50 table prints no unit, the axis is log (antibody concentration, nM)"}, "[3]": {"biological_target": "T1, human SEMG2 full-length protein", "assay": "ELISA on SEMG2; the EC50 table prints no unit, the axis is log (antibody concentration, nM)", "remark": "listed apart in the source"}, "[4]": {"biological_target": "T2, BSA-conjugated human SEMG2 (497-509) polypeptide (human, also: coupled to BSA, site not given here)", "T2 peptide": "QIEKLVEGKSQIQ", "assay": "ELISA on BSA-S2 (497-509); curve without upper plateau; the EC50 table prints no unit, the axis is log (antibody concentration, nM)"}, "[5]": {"biological_target": "T1, human SEMG2 full-length protein", "assay": "ELISA (FIG. 21B-D)"}, "[6]": {"biological_target": "T2, BSA-conjugated human SEMG2 (497-509) …", "assay": "ELISA (FIG. 21B-D)"}, "[7]": {"biological_target": "T3, human CD27 (HA-tagged, expressed in HEK293 cells) (human, UniProt P26842 20-260, limits assumed)", "T3 construct": "Plasmid printed as 'pcDNA3-HA-CD2'; not shown: HA tag", "T3 sequence (looked up)": "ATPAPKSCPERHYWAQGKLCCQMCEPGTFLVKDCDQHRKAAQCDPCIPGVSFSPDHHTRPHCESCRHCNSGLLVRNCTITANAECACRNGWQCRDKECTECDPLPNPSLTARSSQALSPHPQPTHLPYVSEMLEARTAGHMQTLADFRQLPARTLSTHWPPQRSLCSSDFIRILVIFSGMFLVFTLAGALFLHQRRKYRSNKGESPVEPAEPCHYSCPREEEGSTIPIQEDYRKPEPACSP", "assay": "co-immunoprecipitation, HEK293 co-transfection", "description": "In co-immunoprecipitation experiment, cells were lysed in IP buffer (Thermo Scientific) and Roche complete protease inhibitor for 10 minutes, followed by the addition of benzonase (sigma) for 25 minutes at room temperature. The lysate was then centrifuged at 15,000 rpm at 4° C. to remove the precipitate. The supernatant was then incubated with primary antibody slowly rotated overnight at 4° C., followed by the addition of protein A or protein G dynabeads and incubated at 4° C. for 2 hours, washed for 4 times in PBST (PBS with 0.01% Tween 20), eluted with 50 mM DTT in SDS sample buffer for 10 minutes at 100° C., separated with SDS, and immunoblotted as previously described.\nTo further confirm which part of SEMG-2 binds to CD27, fragments of SEMG2 protein were designed. The amino acid sequence of full-length SEMG2 protein (SEQ ID NO:1) was divided into 6 segments of sequences, fused with GFP and named as SEMG2-P1, SEMG2-P2, SEMG2-P3, SEMG2-P4, SEMG2-P5 and SEMG2-P6 (See Table 1 for specific sequences, with corresponding abbreviation as P1-P6 respectively). Plasmids expressing these amino acid sequences were co-transfected with CD27 into HEK293 cells, and co-immunoprecipitation experiments were performed to identify the main fragment of SEMG2 that binds to CD27."}, "[8]": {"biological_target": "T1, human SEMG2 full-length protein", "assay": "ELISA on SEMG2; the EC50 table prints no unit, the axis is log (antibody concentration, nM)", "remark": "listed apart in the source"}, "[9]": {"biological_target": "T1, human SEMG2 full-length protein", "assay": "ELISA on SEMG2 protein; the EC50 table prints no unit, the axis is log (antibody concentration, nM)"}}, "note": "No end group written: not given here."}
{"binder": "B1", "values": [{"measurement": "Kd", "setting": "[1]", "result": 28.4, "unit": "nM"}, {"measurement": "EC50", "setting": "[2]", "result": 0.863, "unit": "nM"}, {"measurement": "EC50", "setting": "[3]", "result": 2.13, "unit": "nM"}, {"measurement": "EC50", "setting": "[4]", "result": 57.5, "unit": "nM"}]}
{"binder": "B2", "values": [{"measurement": "fold higher affinity than the parent antibody (H88-67)", "setting": "[5]", "result": "> 10", "unit": "fold"}, {"measurement": "fold higher affinity than the parent antibody (H88-67)", "setting": "[6]", "result": "> 10", "unit": "fold"}, {"measurement": "EC50", "setting": "[3]", "result": 0.619, "unit": "nM"}, {"measurement": "EC50", "setting": "[4]", "result": 38.5, "unit": "nM"}]}
{"binder": "EQKGRYKQESSESHNIVITEHEVAQDDHLTQQYNEDRNPIST (other, also: fused to GFP, variant, linker and side of fusion not given here, not shown: GFP fusion partner)", "note": "[SEMG2-P6 fused with GFP]", "values": [{"measurement": "binding result", "setting": "[7]", "result": "no binding"}]}
{"binder": "B3", "values": [{"measurement": "binding result", "setting": "[7]", "result": "no binding"}]}
{"binder": "B4", "values": [{"measurement": "binding result", "setting": "[7]", "result": "no binding"}]}
{"binder": "B5", "values": [{"measurement": "fold higher affinity than the parent antibody (H88-96)", "setting": "[5]", "result": "> 10", "unit": "fold"}, {"measurement": "fold higher affinity than the parent antibody (H88-96)", "setting": "[6]", "result": "> 10", "unit": "fold"}, {"measurement": "EC50", "setting": "[8]", "result": 0.358, "unit": "nM"}, {"measurement": "EC50", "setting": "[4]", "result": 32.2, "unit": "nM"}]}
{"binder": "B6", "values": [{"measurement": "Kd", "setting": "[1]", "result": 14, "unit": "nM"}, {"measurement": "EC50", "setting": "[2]", "result": 9.3, "unit": "nM"}, {"measurement": "EC50", "setting": "[8]", "result": 14, "unit": "nM"}, {"measurement": "EC50", "setting": "[4]", "result": 95.7, "unit": "nM"}]}
{"binder": "B7", "values": [{"measurement": "EC50", "setting": "[9]", "result": 0.18, "unit": "nM"}]}
{"binder": "B8", "values": [{"measurement": "EC50", "setting": "[9]", "result": 0.123, "unit": "nM"}]}
{"binder": "B9", "values": [{"measurement": "EC50", "setting": "[9]", "result": 0.092, "unit": "nM"}]}
{"binder": "B10", "values": [{"measurement": "binding result", "setting": "[7]", "result": "no binding"}]}
{"binder": "B11", "values": [{"measurement": "binding result", "setting": "[7]", "result": "no binding"}]}
